Paper PMC10830416

Biological target: LINE-1 ORF2p (L1 ORF2p), wild type (Homo sapiens, UniProt O00370 1-1275)
Experiment: cryo-EM structure (3.2 A); dTTP bound as incoming nucleotide; dTTP, dATP, ddGTP 1 mM each; 10 mM MgCl2; BS3 cross-linked; Cryo-EM: 600 nm ORF2p, RNA-DNA duplex 2:1 over protein, 30 mM K-HEPES pH 7.9, 150 mM KCl, 10 mM MgCl2, 5 mM EGTA, 1 mM DTT, 37 C 30 s, then 4 mM BS3 on ice 5 mi

LINE-1 ORF2p (L1 ORF2p), wild type, sequence (O00370 whole entry): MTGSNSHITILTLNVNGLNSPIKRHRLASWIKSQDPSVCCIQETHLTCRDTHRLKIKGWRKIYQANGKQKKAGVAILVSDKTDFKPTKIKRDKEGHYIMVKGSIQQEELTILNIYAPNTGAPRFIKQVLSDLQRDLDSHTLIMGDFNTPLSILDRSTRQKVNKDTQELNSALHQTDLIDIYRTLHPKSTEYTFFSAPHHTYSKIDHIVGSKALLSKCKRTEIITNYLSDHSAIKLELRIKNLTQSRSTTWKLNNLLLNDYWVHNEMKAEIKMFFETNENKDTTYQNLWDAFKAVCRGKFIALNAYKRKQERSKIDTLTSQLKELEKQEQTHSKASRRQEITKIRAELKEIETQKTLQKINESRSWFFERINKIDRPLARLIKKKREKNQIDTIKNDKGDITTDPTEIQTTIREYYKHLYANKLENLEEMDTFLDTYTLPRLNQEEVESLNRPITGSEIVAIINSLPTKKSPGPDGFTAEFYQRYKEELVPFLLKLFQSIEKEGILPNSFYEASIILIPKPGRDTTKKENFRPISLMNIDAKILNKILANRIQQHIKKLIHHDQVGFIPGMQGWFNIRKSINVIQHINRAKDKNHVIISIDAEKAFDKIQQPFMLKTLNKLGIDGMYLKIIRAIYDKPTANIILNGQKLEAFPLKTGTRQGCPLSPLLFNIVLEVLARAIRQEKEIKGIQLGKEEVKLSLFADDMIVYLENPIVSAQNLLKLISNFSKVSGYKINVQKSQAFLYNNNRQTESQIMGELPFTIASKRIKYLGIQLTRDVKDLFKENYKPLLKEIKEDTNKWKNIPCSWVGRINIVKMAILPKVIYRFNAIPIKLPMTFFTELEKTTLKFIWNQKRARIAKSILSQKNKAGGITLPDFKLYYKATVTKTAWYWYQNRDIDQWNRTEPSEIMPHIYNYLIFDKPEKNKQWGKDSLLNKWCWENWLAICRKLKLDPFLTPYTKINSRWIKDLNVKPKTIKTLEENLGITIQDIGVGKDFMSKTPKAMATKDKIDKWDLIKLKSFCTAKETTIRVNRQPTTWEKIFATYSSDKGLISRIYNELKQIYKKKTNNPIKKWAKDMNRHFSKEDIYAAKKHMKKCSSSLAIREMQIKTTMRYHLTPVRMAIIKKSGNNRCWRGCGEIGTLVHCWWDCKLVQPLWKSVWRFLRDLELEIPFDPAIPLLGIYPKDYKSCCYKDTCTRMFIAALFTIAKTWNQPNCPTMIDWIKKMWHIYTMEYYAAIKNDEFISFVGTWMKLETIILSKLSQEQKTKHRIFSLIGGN

B1: Synthetic template RNA (74 nt) with 8 nt DNA primer extended to 13 nt, ending in ddG (mixed)
RNA: GCAGACUGCGUAGGCGUGCAGGAACCUGCACGCCUACGCAGUCUGCAAAAAAAAAAAAAAACAAUAUCGGCGCG
DNA: CGCGCCGATATTG
modifications: 3' dideoxyguanosine on the cDNA strand
B1: binds.
